For one substance, EC50 (read off the curve) results are on record in US20210221891A1.

This assay has as its target human PD-L1 expressed on CHO-K1 cells (human) (UniProt Q9NZQ7). The experiment in a line: FACS binding to CHO-K1 cells stably expressing human PD-L1, FITC anti-human IgG secondary, Geo.Mean fluorescence vs log(nM) antibody.

Chain of human PD-L1 expressed on CHO-K1 cells (human) (Q9NZQ7 19-290): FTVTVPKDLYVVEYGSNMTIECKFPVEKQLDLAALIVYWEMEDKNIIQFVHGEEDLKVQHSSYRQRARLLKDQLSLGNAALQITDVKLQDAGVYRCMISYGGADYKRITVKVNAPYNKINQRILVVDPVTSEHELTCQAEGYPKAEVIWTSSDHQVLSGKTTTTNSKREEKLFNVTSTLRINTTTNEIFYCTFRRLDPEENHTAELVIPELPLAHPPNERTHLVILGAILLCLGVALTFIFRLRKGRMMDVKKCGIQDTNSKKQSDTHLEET

Substance Tecentriq® (antibody) yielded a 50% effective concentration (EC50 (read off the curve)) of 20 nM.
